One protein from doi:10.1101/2022.03.10.483757 (bioRxiv, 2022) can be followed below.

The series concerns the molecule itself. The series is described as follows: crystal structure.

B1: His6-tagged SFPQ-276–535 L534I (domain or fragment, human, UniProt P23246 276-535, looked up)
chain: EGFKANLSLLRRPGEKTYTQRCRLFVGNLPADITEDEFKRLFAKYGEPGEVFINKGKGFGFIKLESRALAEIAKAELDDTPMRGRQLRVRFATHAAALSVRNLSPYVSNELLEEAFSQFGPIERAVVIVDDRGRSTGKGIVEFASKPAARKAFERCSEGVFLLTTTPRPVIVEPLEQLDDEDGLPEKLAQKNPMYQKERETPPRFAQHGTFEYEYSQRWKSLDEMEKQQREQVEKNMKDAKDKLESEMEDAYHEHQANIL
Turning to B1, the binding result is on record as “binds”.
